Assay results reported in the Immune Epitope Database (IEDB).

Experiments:
HLA-A*01:01 = test: IEDB peptide-MHC binding, purified MHC/direct/fluorescence; filed as Kd, often an IC50 or EC50 that approximates it; ≥ and ≤ were set here for values at or beyond the usual limits of such assays
HLA-A*02:01 [1] = test: as above
HLA-A*03:01 = test: as above
HLA-A*11:01 = test: as above
HLA-A*26:01 [2] = test: as above; details: source organism: Campylobacter jejuni
HLA-A*26:02 = test: as above
HLA-A*31:01 = test: as above
HLA-A*68:02 = test: as above
HLA-B*07:02 = test: as above
HLA-B*08:01 = test: as above
HLA-B*08:02 = test: as above
HLA-B*08:03 = test: as above
HLA-B*15:01 [3] = test: as above
HLA-B*15:17 [4] = test: as above
HLA-B*27:05 = test: as above
HLA-B*46:01 [5] = test: as above
HLA-B*48:01 = test: as above
HLA-B*57:01 [6] = test: as above
HLA-B*58:01 = test: as above
HLA-A*02:03 [7] = test: IEDB peptide-MHC binding, purified MHC/competitive/fluorescence; filed as Kd, often an IC50 or EC50 that approximates it; ≥ and ≤ were set here for values at or beyond the usual limits of such assays; details: source organism: Campylobacter jejuni subsp. jejuni BH-01-0142
HLA-A*02:06 = test: as above
HLA-B*40:01 [8] = test: as above; details: source organism: Campylobacter jejuni subsp. jejuni BH-01-0142
HLA-A*02:03 [9] = test: IEDB peptide-MHC binding, purified MHC/direct/fluorescence; filed as Kd, often an IC50 or EC50 that approximates it; ≥ and ≤ were set here for values at or beyond the usual limits of such assays
HLA-A*02:12 = test: as above
HLA-A*02:19 = test: as above
HLA-A*23:01 [10] = test: as above
HLA-A*24:03 = test: as above
HLA-A*29:02 = test: as above
HLA-A*02:01 [11] = test: IEDB peptide-MHC binding, purified MHC/competitive/fluorescence; filed as Kd, often an IC50 or EC50 that approximates it; ≥ and ≤ were set here for values at or beyond the usual limits of such assays
HLA-A*26:01 [12] = test: as above
HLA-A*69:01 = test: as above
HLA-B*15:17 [13] = test: as above
HLA-B*18:01 [14] = test: as above
HLA-B*27:03 = test: as above
HLA-B*39:01 = test: as above
HLA-B*46:01 [15] = test: as above
HLA-B*51:01 = test: as above
HLA-B*57:01 [16] = test: as above
HLA-A*23:01 [17] = test: as above; details: source organism: Yersinia enterocolitica (type O:8)
HLA-B*18:01 [18] = test: IEDB peptide-MHC binding, purified MHC/direct/fluorescence; filed as Kd, often an IC50 or EC50 that approximates it; ≥ and ≤ were set here for values at or beyond the usual limits of such assays; details: source organism: Vibrio parahaemolyticus
HLA-B*40:01 [19] = test: as above; details: source organism: Vibrio parahaemolyticus
HLA-A*02:11 = test: as above; details: source organism: Zaire ebolavirus
HLA-A*02:16 = test: as above; details: source organism: Zaire ebolavirus
HLA-B*15:01 [20] = test: IEDB peptide-MHC binding, purified MHC/competitive/fluorescence; filed as Kd, often an IC50 or EC50 that approximates it; ≥ and ≤ were set here for values at or beyond the usual limits of such assays; details: source organism: Zaire ebolavirus
[21] = source organism: Campylobacter jejuni
[22] = source organism: Giardia lamblia ATCC 50803
[23] = source organism: Vibrio parahaemolyticus
[24] = source organism: Vibrio parahaemolyticus RIMD 2210633
[25] = source organism: Zaire ebolavirus

Sequence: VSIRGSHHK
- Kd (HLA-A*01:01; [21]): ≥ 20 µM
- Kd (HLA-A*02:01 [1]; [21]): ≥ 20 µM
- Kd (HLA-A*03:01; [21]): 0.145 µM
- Kd (HLA-A*11:01; [21]): 0.091 µM
- Kd (HLA-A*26:01 [2]): ≥ 20 µM
- Kd (HLA-A*26:02; [21]): ≥ 20 µM
- Kd (HLA-A*31:01; [21]): 4.88 µM
- Kd (HLA-A*68:02; [21]): ≥ 20 µM
- Kd (HLA-B*07:02; [21]): ≥ 20 µM
- Kd (HLA-B*08:01; [21]): ≥ 20 µM
- Kd (HLA-B*08:02; [21]): ≥ 20 µM
- Kd (HLA-B*08:03; [21]): ≥ 20 µM
- Kd (HLA-B*15:01 [3]; [21]): ≥ 5 µM
- Kd (HLA-B*15:17 [4]; [21]): ≥ 20 µM
- Kd (HLA-B*27:05; [21]): ≥ 20 µM
- Kd (HLA-B*46:01 [5]; [21]): ≥ 20 µM
- Kd (HLA-B*48:01; [21]): ≥ 20 µM
- Kd (HLA-B*57:01 [6]; [21]): ≥ 20 µM
- Kd (HLA-B*58:01; [21]): ≥ 20 µM
- Kd (HLA-A*02:03 [7]): 3.41 µM
- Kd (HLA-A*02:06; source organism: Campylobacter jejuni subsp. jejuni BH-01-0142): 5.13 µM
- Kd (HLA-B*40:01 [8]): 3.19 µM

Sequence: RIYDPLWFQ
- Kd (HLA-A*02:03 [9]; [22]): ≥ 20 µM
- Kd (HLA-A*02:12; [22]): ≥ 20 µM
- Kd (HLA-A*02:19; [22]): ≥ 20 µM
- Kd (HLA-A*03:01; [22]): ≥ 20 µM
- Kd (HLA-A*11:01; [22]): 2.93 µM
- Kd (HLA-A*23:01 [10]; [22]): ≥ 20 µM
- Kd (HLA-A*24:03; [22]): ≥ 20 µM
- Kd (HLA-A*29:02; [22]): ≥ 20 µM
- Kd (HLA-A*68:02; [22]): ≥ 20 µM
- Kd (HLA-A*02:01 [11]; [22]): ≥ 20 µM
- Kd (HLA-A*26:01 [12]; [22]): ≥ 20 µM
- Kd (HLA-A*69:01; [22]): ≥ 20 µM
- Kd (HLA-B*15:17 [13]; [22]): ≥ 20 µM
- Kd (HLA-B*18:01 [14]; [22]): ≥ 20 µM
- Kd (HLA-B*27:03; [22]): ≥ 20 µM
- Kd (HLA-B*39:01; [22]): ≥ 20 µM
- Kd (HLA-B*46:01 [15]; [22]): ≥ 20 µM
- Kd (HLA-B*51:01; [22]): ≥ 20 µM
- Kd (HLA-B*57:01 [16]; [22]): ≥ 20 µM

Sequence: TYQVYRYII
- Kd (HLA-A*23:01 [17]): ≤ 0.0001 µM

Sequence: VFMDNAFKK
- Kd (HLA-A*01:01; [23]): ≥ 20 µM
- Kd (HLA-A*02:01 [1]; [23]): ≥ 20 µM
- Kd (HLA-A*03:01; [23]): 1.38 µM
- Kd (HLA-A*11:01; [23]): 0.131 µM
- Kd (HLA-A*26:02; [24]): ≥ 20 µM
- Kd (HLA-A*31:01; [23]): 2.21 µM
- Kd (HLA-A*68:02; [23]): ≥ 20 µM
- Kd (HLA-B*07:02; [23]): ≥ 20 µM
- Kd (HLA-B*08:01; [24]): ≥ 20 µM
- Kd (HLA-B*08:02; [24]): ≥ 20 µM
- Kd (HLA-B*08:03; [24]): ≥ 20 µM
- Kd (HLA-B*15:01 [3]; [23]): ≥ 20 µM
- Kd (HLA-B*15:17 [4]; [23]): ≥ 20 µM
- Kd (HLA-B*18:01 [18]): ≥ 20 µM
- Kd (HLA-B*27:05; [23]): ≥ 20 µM
- Kd (HLA-B*40:01 [19]): ≥ 20 µM
- Kd (HLA-B*46:01 [5]; [23]): ≥ 20 µM
- Kd (HLA-B*48:01; [23]): ≥ 20 µM
- Kd (HLA-B*57:01 [6]; [23]): ≥ 20 µM
- Kd (HLA-B*58:01; [23]): ≥ 20 µM
- Kd (HLA-A*02:06; [24]): 0.291 µM

Sequence: HLSGWELAK
- Kd (HLA-A*02:03 [9]; [25]): ≥ 20 µM
- Kd (HLA-A*02:11): ≥ 20 µM
- Kd (HLA-A*02:12; [25]): ≥ 20 µM
- Kd (HLA-A*02:16): ≥ 20 µM
- Kd (HLA-A*02:19; [25]): ≥ 20 µM
- Kd (HLA-A*03:01; source organism: Sudan ebolavirus - Maleo (1979)): 0.148 µM
- Kd (HLA-A*23:01 [10]; [25]): ≥ 20 µM
- Kd (HLA-A*24:03; [25]): ≥ 20 µM
- Kd (HLA-A*29:02; [25]): ≥ 20 µM
- Kd (HLA-A*68:02; [25]): ≥ 20 µM
- Kd (HLA-A*02:01 [11]; [25]): ≥ 20 µM
- Kd (HLA-A*26:01 [12]; [25]): ≥ 20 µM
- Kd (HLA-A*69:01; [25]): ≥ 20 µM
- Kd (HLA-B*15:01 [20]): ≥ 20 µM
- Kd (HLA-B*15:17 [13]; [25]): ≥ 20 µM
- Kd (HLA-B*18:01 [14]; [25]): ≥ 20 µM
- Kd (HLA-B*27:03; [25]): ≥ 20 µM
- Kd (HLA-B*39:01; [25]): ≥ 20 µM
- Kd (HLA-B*46:01 [15]; [25]): ≥ 20 µM
- Kd (HLA-B*51:01; [25]): ≥ 20 µM
- Kd (HLA-B*57:01 [16]; [25]): ≥ 20 µM
